# In patent US10131920B2, “Nucleic acid molecules” (MEDIMMUNE LIMITED, priority 2013, dated 2018):
# Positions count from the first letter of the chain named. Names may count otherwise.
# B1: H1-tRNA: WT tRNApyl under control of the H1 promoter, positive control (nucleic acid)
# DNA: AATATTTGCATGTCGCTATGTGTTCTGGGAAATCACCATAAACGTGAAATCCCTATCAGTGATAGAGACTTATAAGTTCCCTATCAGTGATAGAGACACCAGGAAACCTGATCATGTAGATCGAATGGACTCTAAATCCGTTCAGCCGGGTTAGATTCCCGGGGTTTCCGGACAAGTGCGGTTTTTTT
# modifications: Synthetic sequence H1 tRNA-WT construct
# B2: 7SL WT tRNA: WT tRNApyl downstream of the 7SL promoter 5′ region (nucleic acid)
# DNA: CCCAGTTGATGACGTCACCATACCACAGCTTCTAGTGCTATTCTGCGCCGGTATCCGACCACCAGGAAACCTGATCATGTAGATCGAATGGACTCTAAATCCGTTCAGCCGGGTTAGATTCCCGGGGTTTCCGGACAAGTGCGGTTTTT
# modifications: Synthetic sequence 7SL tRNA-WT construct
# notes: WT tRNApyl downstream of the 7SL promoter 5′ region
# B3: 7SL B tRNA: tRNA-B downstream of the 7SL promoter 5′ region (nucleic acid)
# DNA: B2 DNA with A116C
# modifications: Synthetic sequence 7SL tRNA-B construct
# notes: tRNA-B downstream of the 7SL promoter 5′ region
# B4: B tRNA: tRNApyl Methanosarcina mazei with A52C mutation (B-box) (nucleic acid)
# DNA: GGAAACCTGATCATGTAGATCGAATGGACTCTAAATCCGTTCAGCCGGGTTCGATTCCCGGGGTTTCCG
# modifications: expressed or natural sequence
# B5: WT tRNA: wild type tRNApyl gene of Methanosarcina mazei without extragenic promoter (nucleic acid, listed as Methanosarcina mazei)
# DNA: B4 DNA with C52A
# modifications: expressed or natural sequence
# notes: wild type tRNApyl gene of Methanosarcina mazei without extragenic promoter
# Experiments:
# [1] = test system: GFPY40 reporter in 3H7 cells; test: Amber suppression-dependent GFP expression (GFPY40 reporter), transient transfection of 3H7 cells, flow cytometry; format: cell-based; conditions: three days; for GFP MFI, FIG. 11: 1 ug GFPY40 and 1 ug tRNA expression vector, lys-azide; for GFP MFI in the absence of nnAA, FIG. 6: no nnAA
# Description: To assess the function of the tRNA variants, an in vitro assay was established where cells are transiently transfected with a tRNA construct and a reporter construct encoding GFP containing an amber codon interrupting its reading frame (GFPY40). HEK293 cells stably expressing pylRS were transiently transfected with various tRNA constructs (1 ug) and the GFPY40 reporter (1 ug). In the absence of elements that support amber suppression, a truncated GFP protein is generated and the cell is not fluorescent. However, the introduction of a functional tRNA and the presence of a nnAA that supports amber suppression allows for the production of full length GFP resulting in fluorescent cells. The level of GFP expression reflects the efficiency of amber suppression and is quantified by flow cytometry. tRNA genes encoding wild type tRNApyl (WT tRNA), or containing mutations in the B-box (B tRNA—SEQ ID No 9), in both the A and B box (A2B tRNA—SEQ ID No 10), or in the A box (A1 tRNA-SEQ ID No 7; or A2 tRNA SEQ ID No 11), all under control of the H1 promoter were generated by site directed mutagenesis and assayed. The H1 promoter ensured that the variants were expressed and allowed us to examine the functional effects of the mutations introduced into the tRNA genes. In addition a sample transfected with GFPY40 alone was generated to establish background GFP levels. The transfected cells were grown in presence of the aminoacid analogue lys azide (2 mM) and incubated for 18 hours. GFP fluorescence was then assayed by flow cytometry and mean fluorescence intensity determined for each sample. Data were analysed with FCS Express and the mean fluorescence intensity of each sample determined using markers that constrain the data set to cells showing fluorescence above negative controls. […] The constructs thus are functional and may contain the necessary genetic sequence to enable the expression of the tRNA also in the absence of an upstream promoter element such as the H1 promoter.
# Having established that the B mutation introduced into the pyltRNA sequence enabled expression of the tRNA that supported amber suppression we then asked whether this mutation affected the orthogonality of the tRNA and led to the incorporation of natural amino acids. To do this 3H7 cells were transiently transfected with expression constructs encoding WT-tRNA, B-tRNA, H1-tRNA and H1-B tRNA along with the GFPY40 reporter. Transfected cells were grown in the presence of 2 mM lys azide or absence of nnAA as indicated (FIG. 6), and GFP expression assessed by flow cytometry after three days. In addition, a sample transfected only with GFPY40 was examined to determine background amber suppression levels in the absence of tRNA. […] A comparison of GFP expression between the WT tRNA (MFI 33,781) and tRNA B (232,505) lacking extragenic promoter elements confirms that the B mutation generates a functional intragenic promoter. Indeed, the B tRNA construct enabled a seven-fold increase in the level of amber suppression dependent expression of GFP over WT tRNA.
# We also tested the utility of a bicistronic tRNA expression construct for its ability to express tRNApyl. Here, the murine tRNA Glu and tRNA Asp were utilized. In each case, multiple repeats of the constructs were generated to increase activity (3×Glu-pyl and 2×Asp-pyl). Here, 3H7 cells were transiently transfected with 1 ug of the reporter construct GFPY40 and 1 ug of the indicated tRNA expression vectors (FIG. 11) and incubated with lys-azide for three days. Data were collected by flow cytometry and mean fluorescence intensities for each sample were plotted. […] The construct consisting of the 7SL WT tRNA (MFI=312) was included as a metric for low efficiency. In addition cell lines containing only the GFPY40 reporter were used as negative controls (MFI=0).
# [2] = test system: GFPY40 reporter (GFP containing an amber codon) in HEK293 cells stably expressing pylRS; test: Amber suppression-dependent GFP expression (GFPY40 reporter), transient transfection, flow cytometry; format: cell-based; conditions: for GFP MFI, FIG. 9: 1 ug GFPY40 reporter and 1 ug tRNA expression plasmid; for GFP MFI, FIG. 8: 1 ug PCR product of each construct, lys azide nnAA; for GFP MFI, FIG. 10: cells stably expressing WTpylRS, lys azide; for GFP MFI, single copy tRNA, FIG. 7 / GFP MFI, tandem copies of tRNA, FIG. 7: cells expressing WTpylRS, after two days; for GFP MFI, tandem copies of tRNA, FIG. 7: single vector containing two copies in tandem
# Description: To assess the function of the tRNA variants, an in vitro assay was established where cells are transiently transfected with a tRNA construct and a reporter construct encoding GFP containing an amber codon interrupting its reading frame (GFPY40). HEK293 cells stably expressing pylRS were transiently transfected with various tRNA constructs (1 ug) and the GFPY40 reporter (1 ug). In the absence of elements that support amber suppression, a truncated GFP protein is generated and the cell is not fluorescent. However, the introduction of a functional tRNA and the presence of a nnAA that supports amber suppression allows for the production of full length GFP resulting in fluorescent cells. The level of GFP expression reflects the efficiency of amber suppression and is quantified by flow cytometry. tRNA genes encoding wild type tRNApyl (WT tRNA), or containing mutations in the B-box (B tRNA—SEQ ID No 9), in both the A and B box (A2B tRNA—SEQ ID No 10), or in the A box (A1 tRNA-SEQ ID No 7; or A2 tRNA SEQ ID No 11), all under control of the H1 promoter were generated by site directed mutagenesis and assayed. The H1 promoter ensured that the variants were expressed and allowed us to examine the functional effects of the mutations introduced into the tRNA genes. In addition a sample transfected with GFPY40 alone was generated to establish background GFP levels. The transfected cells were grown in presence of the aminoacid analogue lys azide (2 mM) and incubated for 18 hours. GFP fluorescence was then assayed by flow cytometry and mean fluorescence intensity determined for each sample. Data were analysed with FCS Express and the mean fluorescence intensity of each sample determined using markers that constrain the data set to cells showing fluorescence above negative controls.
# To begin to assess whether the tRNA mutations can support expression of the tRNA we assayed tRNA constructs encoding the wild type tRNA in the absence of the H1 promoter. Constructs encoding wild type tRNApyl (WT tRNA) or containing mutations in the B-box (B tRNA—SEQ ID No 9) or in both the A and B box (A2B; A2B tRNA—SEQ ID No 10) were assayed using our in vitro amber suppression assay described above. WT tRNA under control of the H1 promoter (H1-tRNA) was used as a positive control, and in addition one sample was transfected only with the GFPY40 reporter to illustrate background amber suppression in the absence of tRNA. The transfected cells were exposed to 2 mM lys-azide nnAA and cells incubated for three days. GFP expression was examined by flow cytometry and mean fluorescence intensity determined.
# Two copies of the WT, B, or A2B tRNA were cloned in tandem to generate a single vector containing two copies of WT, B, or A2B tRNA. To assess the effect of increased gene doses by these constructs, cells expressing WTpylRS were transiently transfected with the tRNA constructs and the GFPY40 reporter construct and GFP expression assayed after two days.
# The activity of each construct was assessed by transient transfection into cells stably expressing WT pylRS with the GFPY40 reporter as described above. For this experiment, 1 ug of a PCR product encoding each of the indicated constructs was used. In each case, cells were exposed to the lys azide nnAA for three days and GFP levels assayed by flow cytometry. Mean fluorescence intensities were determined for each sample and plotted (FIG. 8).
# [3] = 2 mM lys-azide nnAA, three days
Molecule,"GFP MFI, FIG. 11 [1]","GFP MFI in the presence of lys-azide, FIG. 6 ([1]; 2 mM lys azide)","GFP MFI in the absence of nnAA, FIG. 6 [1]","GFP MFI, FIG. 9 [2]","GFP MFI, FIG. 8 ([2]; three days)","GFP mean fluorescence intensity (MFI), FIG. 5 [2, 3]","GFP MFI, FIG. 10 ([2]; three days)",increase in amber suppression dependent expression of GFP over WT tRNA (FIG. 6) ([1]; 2 mM lys azide),"fold higher expression of GFP than the wt tRNA construct (FIG. 5) [2, 3]","capacity to support amber suppression relative to H1 WT tRNA (FIG. 4) ([2]; all tRNA variants under control of the H1 promoter, 1 ug construct + 1 ug GFPY40, lys azide 2 mM, 18 hours)","GFP MFI, single copy tRNA, FIG. 7 [2]","GFP MFI, tandem copies of tRNA, FIG. 7 [2]"
B1,453,"347,958","33,452","241,901","828,503","1,004,228.00",453,–,–,–,–,–
B2,312,–,–,–,"106,075",–,312,–,–,–,–,–
B3,520,–,–,"167,024","265,396",–,520,–,–,–,–,–
B4,–,"232,505","42,104","89,869",–,"410,131.1",329,seven-fold,four-fold,"support amber suppression, albeit at a lower level than the WT tRNA","67,489","110,941"
B5,–,"33,781",–,"25,459","117,626","114,478.1",–,–,–,–,"18,002","20,617"
